Assay results taken from PMC5722895.

B1: Trigger Factor (TF), full length, residues 1-432, P0A850 1-432 (natural protein)
chain: MQVSVETTQGLGRRVTITIAADSIETAVKSELVNVAKKVRIDGFRKGKVPMNIVAQRYGASVRQDVLGDLMSRNFIDAIIKEKINPAGAPTYVPGEYKLGEDFTYSVEFEVYPEVELQGLEAIEVEKPIVEVTDADVDGMLDTLRKQQATWKEKDGAVEAEDRVTIDFTGSVDGEEFEGGKASDFVLAMGQGRMIPGFEDGIKGHKAGEEFTIDVTFPEEYHAENLKGKAAKFAINLKKVEERELPELTAEFIKRFGVEDGSVEGLRAEVRKNMERELKSAIRNRVKSQAIEGLVKANDIDVPAALIDSEIDVLRRQAAQRFGGNEKQALELPRELFEEQAKRRVVVGLLLGEVIRTNELKADEERVKGLIEEMASAYEDPKEVIEFYSKNKELMDNMRNVALEEQAVEAVLAKAKVTEKETTFNELMNQQA
B2: Trigger Factor (TF), full length, residues 1–432, P0A850 1-432 (natural protein)
chain: MQVSVETTQGLGRRVTITIAADSIETAVKSELVNVAKKVRIDGFRKGKVPMNIVAQRYGASVRQDVLGDLMSRNFIDAIIKEKINPAGAPTYVPGEYKLGEDFTYSVEFEVYPEVELQGLEAIEVEKPIVEVTDADVDGMLDTLRKQQATWKEKDGAVEAEDRVTIDFTGSVDGEEFEGGKASDFVLAMGQGRMIPGFEDGIKGHKAGEEFTIDVTFPEEYHAENLKGKAAKFAINLKKVEERELPELTAEFIKRFGVEDGSVEGLRAEVRKNMERELKSAIRNRVKSQAIEGLVKANDIDVPAALIDSEIDVLRRQAAQRFGGNEKQALELPRELFEEQAKRRVVVGLLLGEVIRTNELKADEERVKGLIEEMASAYEDPKEVIEFYSKNKELMDNMRNVALEEQAVEAVLAKAKVTEKETTFNELMNQQA

Legend:
Conditions in all cases: remark: other sources report otherwise
[1] = target: T1, Trigger Factor (TF), full length, residues 1-432 (E. coli), P0A850; assay: SEC-MALS; concentration series of full-length TF and full-length mutants alone, 26 °C, sample buffer (20 mM K-phosphate pH 6.5, 100 mM KCl, 0.5 mM EDTA); fit to a fast monomer-dimer equilibrium; dimer to monomers
T1 chain: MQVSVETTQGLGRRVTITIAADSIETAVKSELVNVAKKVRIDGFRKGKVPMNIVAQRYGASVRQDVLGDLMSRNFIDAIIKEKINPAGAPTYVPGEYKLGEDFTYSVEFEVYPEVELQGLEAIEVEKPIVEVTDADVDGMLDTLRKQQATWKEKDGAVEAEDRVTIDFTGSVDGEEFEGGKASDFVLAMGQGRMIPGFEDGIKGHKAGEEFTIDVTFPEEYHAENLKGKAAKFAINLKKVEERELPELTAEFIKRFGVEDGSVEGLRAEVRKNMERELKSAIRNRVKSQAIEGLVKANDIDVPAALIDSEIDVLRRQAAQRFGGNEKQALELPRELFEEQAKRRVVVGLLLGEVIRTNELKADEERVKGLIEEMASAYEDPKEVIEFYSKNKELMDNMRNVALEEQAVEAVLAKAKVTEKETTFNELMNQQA

[2] = target: T2, Trigger Factor (TF), full length, residues 1–432 (E. coli), P0A850; assay: SEC-MALS; as a2 but 250 mM KCl; dimer to monomers
T2 chain: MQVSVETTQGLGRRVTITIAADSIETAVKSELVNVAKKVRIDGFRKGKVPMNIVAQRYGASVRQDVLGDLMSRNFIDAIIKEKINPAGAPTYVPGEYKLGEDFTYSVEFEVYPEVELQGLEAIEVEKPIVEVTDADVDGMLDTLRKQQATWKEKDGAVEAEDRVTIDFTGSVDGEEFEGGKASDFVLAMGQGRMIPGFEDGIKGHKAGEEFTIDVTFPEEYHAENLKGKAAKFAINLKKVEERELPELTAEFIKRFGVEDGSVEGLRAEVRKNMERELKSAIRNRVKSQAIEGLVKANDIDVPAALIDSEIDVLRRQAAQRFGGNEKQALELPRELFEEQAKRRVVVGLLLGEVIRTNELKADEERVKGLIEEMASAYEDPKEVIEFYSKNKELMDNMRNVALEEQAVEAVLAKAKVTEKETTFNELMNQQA

[3] = target: T2, Trigger Factor (TF), full length, …; assay: SEC-MALS; sample buffer (20 mM K-phosphate pH 6.5, 100 mM KCl, 0.5 mM EDTA); 6 °C for the individual domains; concentration series fitted to a fast monomer–dimer equilibrium; dimer to monomers
[4] = target: T2, Trigger Factor (TF), full length, …; assay: real-time NMR spin-label exchange (intermolecular PRE); 15 °C; 100 µM [U-2H,15N] TF mixed with 100 μM OXYL-1-NHS-labeled TF in sample buffer; decay of the 15N-filtered signal fitted to the lifetime of the dimer
[5] = target: T2, Trigger Factor (TF), full length, …; assay: AUC; sedimentation equilibrium, 6 °C, 100 mM KCl (sample buffer: 20 mM K-phosphate pH 6.5, 100 mM KCl, 0.5 mM EDTA); 12 μM TF, 48 and 135 μM RBD–SBD; global fit to a monomer–dimer model; dimer to monomers
[6] = target: T2, Trigger Factor (TF), full length, …; assay: SEC-MALS; as a2 but 500 mM KCl; dimer to monomers
[7] = target: T2, Trigger Factor (TF), full length, …; assay: real-time NMR spin-label exchange (intermolecular PRE); 35 °C; 100 µM [U-2H,15N] TF mixed with 100 μM OXYL-1-NHS-labeled TF in sample buffer; decay of the 15N-filtered signal fitted to the lifetime of the dimer

Binder	Kd [1]	Kd [2]	Kd [3]	stoichiometry N [3]	lifetime of the dimer [4]	Kd [5]	Kd [6]	lifetime of the dimer [7]
B1	1.1 µM							
B2		9 µM	1.7 µM	2	15.8 min	3.3 µM	30 µM	2.6 min
